{
  "source": "the RNAGym collection of RNA variant scans (doi:10.7554/elife.90254)",
  "parents": {"B1": {"name": "OR4K15 (parent)", "chain": "GUUAACGGUCAUAGGCCAUGGAAACUAGGAGCACCAUUUCGCUGCCAGUGAAGAAAUGAACAAAGAAAAUCUGGGCCAGGCAGGCAUCAAAAGAAAUAGUCUUGCGCUCAACCAGAAAGUCUGUAAUCAUUUUAAGGGUA"}},
  "data": [
    {"variants_of": "B1", "test": "self-cleavage, relative activity (ratio to wild type); higher = more cleavage; in vitro, sequencing; the parent is a self-cleaving ribozyme", "values": [
      {"variant": "GUUAACGGUCAUAGGCCAUGGAAACUAGGAGCACCAUUUCGCUGCCAGUGAAGAAAUGAAUAAAGAAAAUCUGGGCCAGGCAGGCAUCAAAAGAAAUAGUCUUGCGCUCAACCAGAAAGUCUGUAAUCAUUUUAAGGAUA", "note": "[C61U G138A]", "self-cleavage": 1.4},
      {"variant": "GUUAACGGUCAUAGGCCAUGGAAACUAGGAGCACCAUUUCGCUGCCAGUGAAGAAAUGAAUAAAGAAAAUCUGGGCCAGGCAGGCAUCAAAAGAAAUAGUCUUGCGCUCAACCAGAAAGUCUGUAAUCAUUUUAAGGGUG", "note": "[C61U A140G]", "self-cleavage": 1.73},
      {"variant": "GUUAACGGUCAUAGGCCAUGGAAACUAGGAGCACCAUUUCGCUGCCAGUGAAGAAAUGAAUAAAGAAAAUCUGGGCCAGGCAGGCAUCAAAAGAAAUUGUCUUGCGCUCAACCAGAAAGUCUGUAAUCAUUUUAAGGGUA", "note": "[C61U A98U]", "self-cleavage": 2.63},
      {"variant": "GUUAACGGUCAUAGGCCAUGGAAACUAGGAGCACCAUUUCGCUGCCAGUGAAGAAAUGAUCAAAGAAAAUCUGGGCCAGGCAGGCAUCAAAAGAAAUAGUCUUGCACUCAACCAGAAAGUCUGUAAUCAUUUUAAGGGUA", "note": "[A60U G106A]", "self-cleavage": 0},
      {"variant": "GUUAACGGUCAUAGGCCAUGGAAACUAGGAGCACCAUUUCGCUGCCAGUGAAGAAAUGAUCAAAGAAAAUCUGGGCCAGGCAGGCAUCAAAAGAAAUAGUCUUGCCCUCAACCAGAAAGUCUGUAAUCAUUUUAAGGGUA", "note": "[A60U G106C]", "self-cleavage": 0},
      {"variant": "GUUAACGGUCAUAGGCCAUGGAAACUAGGAGCACCAUUUCGCUGCCAGUGAAGAAAUGAUCAAAGAAAAUCUGGGCCAGGCAGGCAUCAAAAGAAAUAGUCUUGCGCUCAACCAGAAAGCCUGUAAUCAUUUUAAGGGUA", "note": "[A60U U120C]", "self-cleavage": 0.7},
      {"variant": "GUUAACGGUCAUAGGCCAUGGAAACUAGGAGCACCAUUUCGCUGCCAGUGAAGAAAUGAUCAAAGAAAAUCUGGGCCAGGCAGGCUUCAAAAGAAAUAGUCUUGCGCUCAACCAGAAAGUCUGUAAUCAUUUUAAGGGUA", "note": "[A60U A86U]", "self-cleavage": 1.67},
      {"variant": "GUUAACGGUCAUAGGCCAUGGAAACUAGGAGCACCAUUUCGCUGCCAGUGAAGAAAUGAAUAAAGAAAAUCUGGGCCAGGCAGGCACCAAAAGAAAUAGUCUUGCGCUCAACCAGAAAGUCUGUAAUCAUUUUAAGGGUA", "note": "[C61U U87C]", "self-cleavage": 1.35},
      {"variant": "GUUAACGGUCAUAGGCCAUGGAAACUAGGAGCACCAUUUCGCUGCCAGUGAAGAAAUGAAUAAAGAAAAUCUGGGCCAGGCAGGCAUCAAAAGAAAUAGUCUUGCGCUCAACCAGAAAGUCUGUAGUCAUUUUAAGGGUA", "note": "[C61U A126G]", "self-cleavage": 0.55},
      {"variant": "GUUAACGGUCAUAGGCCAUGGAAACUAGGAGCACCAUUUCGCUGCCAGUGAAGAAAUGAUCAAAGAAAAUCUGGGCCAGGCAGGCAUCAAAAGAAAUAGUCUUGCGCUCAACUAGAAAGUCUGUAAUCAUUUUAAGGGUA", "note": "[A60U C113U]", "self-cleavage": 0.27},
      {"variant": "GUUAACGGUCAUAGGCCAUGGAAACUAGGAGCACCAUUUCGCUGCCAGUGAAGAAAUGAAUAAAGAAAAUCUGGGCCAGGCAGGCAUCGAAAGAAAUAGUCUUGCGCUCAACCAGAAAGUCUGUAAUCAUUUUAAGGGUA", "note": "[C61U A89G]", "self-cleavage": 1.62},
      {"variant": "GUUAACGGUCAUAGGCCAUGGAAACUAGGAGCACCAUUUCGCUGCCAGUGAAGAAAUGAUCAAAGAAAAUCUGGGCCAGGCAGGCAUCAAAAGAAAUAGUCUUGCGCUCAACCAGAAGGUCUGUAAUCAUUUUAAGGGUA", "note": "[A60U A118G]", "self-cleavage": 1.58},
      {"variant": "GUUAACGGUCAUAGGCCAUGGAAACUAGGAGCACCAUUUCGCUGCCAGUGAAGAAAUGAAUAAAGAAAAUCUGGGCCAGGCAGGCAUCAAUAGAAAUAGUCUUGCGCUCAACCAGAAAGUCUGUAAUCAUUUUAAGGGUA", "note": "[C61U A91U]", "self-cleavage": 1.73},
      {"variant": "GUUAACGGUCAUAGGCCAUGGAAACUAGGAGCACCAUUUCGCUGCCAGUGAAGAAAUGAAUAAAGAAAAUCUGGGCCAGGCAGGCAUCAAGAGAAAUAGUCUUGCGCUCAACCAGAAAGUCUGUAAUCAUUUUAAGGGUA", "note": "[C61U A91G]", "self-cleavage": 0.87},
      {"variant": "GUUAACGGUCAUAGGCCAUGGAAACUAGGAGCACCAUUUCGCUGCCAGUGAAGAAAUGAAUAAAGAAAAUCUGGGCCAGGCAGGCAUCAAAAGAAAUAGUCUUGCGCUCAACCAGAAAGUCUGUAAUCAUUUUAAGGGUA", "note": "[C61U]", "self-cleavage": 1.8},
      {"variant": "GUUAACGGUCAUAGGCCAUGGAAACUAGGAGCACCAUUUCGCUGCCAGUGAAGAAAUGAAAAAAGAAAAUCUGGGCCAGGCAGGCAUCAAAAGAAAUAGUCUUGCGCUCAACCAGAAAGUCUGUAAUCAUUUUAAGGGUA", "note": "[C61A]", "self-cleavage": 1.82},
      {"variant": "GUUAACGGUCAUAGGCCAUGGAAACUAGGAGCACCAUUUCGCUGCCAGUGAAGAAAUGAAGAAAGAAAAUCUGGGCCAGGCAGGCAUCAAAAGAAAUAGUCUUGCGCUCAACCAGAAAGUCUGUAAUCAUUUUAAGGGUA", "note": "[C61G]", "self-cleavage": 1.24},
      {"variant": "GUUAACGGUCAUAGGCCAUGGAAACUAGGAGCACCAUUUCGCUGCCAGUGAAGAAAUGAAUAAUGAAAAUCUGGGCCAGGCAGGCAUCAAAAGAAAUAGUCUUGCGCUCAACCAGAAAGUCUGUAAUCAUUUUAAGGGUA", "note": "[C61U A64U]", "self-cleavage": 0.27},
      {"variant": "GUUAACGGUCAUAGGCCAUGGAAACUAGGAGCACCAUUUCGCUGCCAGUGAAGAAAUGAUCAAAGAAAAUCUGGGCCAGGCAGGCAUCAAAAGAAAUAGUCUUGCGCUCAACCAGAAAGUCUGUAAUUAUUUUAAGGGUA", "note": "[A60U C128U]", "self-cleavage": 0.44},
      {"variant": "GUUAACGGUCAUAGGCCAUGGAAACUAGGAGCACCAUUUCGCUGCCAGUGAAGAAAUGAUCAAAGAAAAUCUGGGCCAGGCAGGCAUCAAAAGAAAUAGUCUUGCGCUCAACCAGAAAGUCUGCAAUCAUUUUAAGGGUA", "note": "[A60U U124C]", "self-cleavage": 0.94}
    ]}
  ]
}
